Data set [1] deals with Aeropyrum pernix ThermoDBP-related protein 2 (apeThermoDBP-RP2) (Aeropyrum pernix). Briefly: crystal structure.
Data set [2] shares this target. Briefly: crystal structure. This is another data set of the same source.
The target is the same in data set [3]. Briefly: SEC. Background: SEC sorts molecules by how far they enter the pores of the column.
In data set [4] the target is Pyrococcus furiosus ThermoDBP-related protein 1 (pfuThermoDBP-RP1) (Pyrococcus furiosus). Briefly: crystal structure.
The target is the same in data set [5]. Briefly: SEC.
Data set [6] addresses T1, apeThermoDBP-RP2 (Aeropyrum pernix, UniProt Q9YAS7 1-234).
T1 sequence: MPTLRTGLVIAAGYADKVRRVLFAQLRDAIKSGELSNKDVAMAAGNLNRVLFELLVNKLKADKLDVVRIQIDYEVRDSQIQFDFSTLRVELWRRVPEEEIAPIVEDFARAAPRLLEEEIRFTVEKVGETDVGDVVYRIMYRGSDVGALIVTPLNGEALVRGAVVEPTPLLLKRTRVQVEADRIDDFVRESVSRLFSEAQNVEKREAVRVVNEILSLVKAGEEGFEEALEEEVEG
Briefly: EMSA.

In data set [7] the target is T1, apeThermoDBP-RP2. In words: EMSA. This is another data set of the same source. Background: In EMSA bound probe runs differently from free probe, usually more slowly.
Data set [8] deals with T1, apeThermoDBP-RP2. In words: EMSA. This is another data set of the same source.
For data set [9], the target named is T1, apeThermoDBP-RP2. In words: EMSA. The source holds these as a separate data set.

Like-named read-outs stand apart in the source and are kept apart here.

Consider “Aeropyrum pernix ThermoDBP-related protein 2 (apeThermoDBP-RP2) (natural protein)”, for which the stoichiometry N in [1], in [2] and in data set [3] was 4 throughout.

Take “Pyrococcus furiosus ThermoDBP-related protein 1 (pfuThermoDBP-RP1) (natural protein)”: the stoichiometry N in [4] and in data set [5] was 4 each time.

With TTTTTTTTTTTTTTTTTTTTTTTTT (ssDNA) [dT25], the binding result with apeThermoDBP-RP2 [6] is “binds”. On to TTTTTTTTTTTTTTTTTTTTTTTTTTTTTT (ssDNA) [dT30], for which the binding result with apeThermoDBP-RP2 [7] is reported as “binds”. With TTTTTTTTTTTTTTT (ssDNA) [dT15], the binding result with apeThermoDBP-RP2 [6] is “binds”.

As to CTTGCTAGGACGGATCCCTCGAGGTTTTTTTTTTTTTTTTTTTT (ssDNA) [45-mer ssDNA], the binding result with apeThermoDBP-RP2 [8] was “binds”.

Regarding TTTTTTTTTTTTTTTTTTTTTTTTTTTTTTTTTTT (ssDNA) [dT35], the binding result with apeThermoDBP-RP2 [9] is on record as “binds”.

Take TTTTTTTTTTTTTTTTTTTT (ssDNA) [dT20]: the binding result with apeThermoDBP-RP2 [6] was “binds”.

The values above are taken from publication PMC4041433.
